The values that follow come from paper PMC3839853 (FEBS Open Bio, 2013).

This series deals with the molecule itself. Put plainly: crystal structure.

B1: Recombinant wild-type Phanerochaete chrysosporium pyranose 2-oxidase (PcP2O_(RECWT)), full-length residues 1-621 with N-terminal T7-epitope tag and C-terminal … (enzyme, UniProt Q6QWR1 10-621, looked up)
chain: ADEPYDVFIAGSGPIGATFAKLCVDANLRVCMVEIGAADSFTSKPMKGDPNAPRSVQFGPGQVPIPGYHKKNEIEYQKDIDRFVNVIKGALSTCSIPTSNNHIATLDPSVVSNSLDKPFISLGKNPAQNPFVNLGAEAVTRGVGGMSTHWTCATPEFFAPADFNAPHRERPKLSTDAAEDARIWKDLYAQAKEIIGTSTTEFDHSIRHNLVLRKYNDIFQKENVIREFSPLPLACHRLTDPDYVEWHATDRILEELFTDPVKRGRFTLLTNHRCTKLVFKHYRPGEENEVDYALVEDLLPHMQNPGNPASVKKIYARSYVVACGAVATAQVLANSHIPPDDVVIPFPGGEKGSGGGERDATIPTPLMPMLGKYITEQPMTFCQVVLDSSLMEVVRNPPWPGLDWWKEKVARHVEAFPNDPIPIPFRDPEPQVTIKFTEEHPWHVQIHRDAFSYGAVAENMDTRVIVDYRFFGYTEPQEANELVFQQHYRDAYDMPQPTFKFTMSQDDRARARRMMDDMCNIALKIGGYLPGSEPQFMTPGLALHLAGTTRCGLDTQKTVGNTHCKVHNFNNLYVGGNGVIETGFAANPTLTSICYAIRASNDIIAKFGRHRG
One may read the stoichiometry N as the number of molecules, sites or subunits per partner or assembly. Take B1: the “stoichiometry N” value is 4.
